Measurements from the supplement of paper PMC7125110.
± gives the standard error. For some assays here: Fewer inactive variants are shown than the library holds.

B1: glmS ribozyme (parent)
chain: AUAAAAGCGCCAGAACUACAGAAAUGUAGUUGACGAGGAGGAGGUUUAUCGAAUUUUCGGCGGAUGCCUCCAAA

Tests used:
Conditions in all cases: with glucosamine-6-phosphate
glucosamine-6-phosphate [1] = variants of: B1; experiment: kcat; higher = faster cleavage; RNA array
Method in brief: (§1)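 Using a hybridised Cy3 probe at 37 °C, barcoded ribozyme variants transcribed in situ by E. coli RNA polymerase on sequenced MiSeq chips were monitored across tiles imaged over ~14 h. The flow contained glucosamine-6-phosphate from 40 μM to 10 mM in HEPES/KCl/Mg(OAc)2 buffer. Signals were normalised to baseline and to non-cleaving reference variants before per-tile medians were fit to one- or two-exponential decays to yield kobs. Weighted Michaelis–Menten fits across concentrations gave kcat and KM.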

glucosamine-6-phosphate [2] = variants of: B1; experiment: KM; higher = weaker cofactor use; RNA array
Method in brief: as §1

glucosamine-6-phosphate [3] = variants of: B1; experiment: self-cleavage kobs at 40 uM GlcN6P; higher = faster cleavage; RNA array
Method in brief: as §1

glucosamine-6-phosphate [4] = variants of: B1; experiment: self-cleavage kobs at 640 uM GlcN6P; higher = faster cleavage; RNA array
Method in brief: as §1

glucosamine-6-phosphate [5] = variants of: B1; experiment: self-cleavage kobs at 2500 uM GlcN6P; higher = faster cleavage; RNA array
Method in brief: as §1

glucosamine-6-phosphate [6] = variants of: B1; experiment: self-cleavage kobs at 10000 uM GlcN6P; higher = faster cleavage; RNA array
Method in brief: as §1

glucosamine-6-phosphate [7] = variants of: B1; experiment: self-cleavage kobs at 160 uM GlcN6P; higher = faster cleavage; RNA array
Method in brief: as §1

Row | Variant | kcat (glucosamine-6-phosphate [1]) [s⁻¹] | KM (glucosamine-6-phosphate [2]) [mM] | self-cleavage kobs at 40 uM GlcN6P (glucosamine-6-phosphate [3]) [s⁻¹] | self-cleavage kobs at 640 uM GlcN6P (glucosamine-6-phosphate [4]) [s⁻¹] | self-cleavage kobs at 2500 uM GlcN6P (glucosamine-6-phosphate [5]) [s⁻¹] | self-cleavage kobs at 10000 uM GlcN6P (glucosamine-6-phosphate [6]) [s⁻¹] | self-cleavage kobs at 160 uM GlcN6P (glucosamine-6-phosphate [7]) [s⁻¹]
1 | G32A G41U A52U | < 1e-05 | 1.01 ± 0.12 | < 1e-05 | < 1e-05 | – | – | –
2 | U31G C58G | 0.000125 ± 1.3e-05 | 1.1 ± 0.4 | – | 5.51e-05 ± 1.3e-05 | 7.65e-05 ± 1.2e-05 | 0.000119 ± 1.3e-05 | –
3 | G32C U45A | 0.000238 ± 2.8e-05 | 3.69 ± 1 | – | 2.9e-05 ± 1.3e-05 | 0.000113 ± 2.7e-05 | 0.000171 ± 2.3e-05 | –
4 | A33C U45A | 0.000472 ± 1.3e-05 | 3.5 ± 0.18 | – | 7.41e-05 ± 1.9e-05 | 0.000197 ± 2.9e-05 | 0.00035 ± 5.3e-05 | –
5 | G32U C70U | 0.00165 ± 0.00025 | 5.27 ± 1.3 | – | 0.000182 ± 2.4e-05 | 0.000464 ± 6.3e-05 | 0.00111 ± 8.8e-05 | 7.01e-05 ± 1.6e-05
6 | G32U C70A | 4.97e-05 ± 4.6e-06 | – | – | 4.67e-05 ± 1.8e-05 | 5.83e-05 ± 1.3e-05 | 4.67e-05 ± 6.5e-06 | –
7 | G32C C70U | 0.000154 ± 1.4e-05 | 2.85 ± 0.8 | – | 3.89e-05 ± 1.1e-05 | 6.52e-05 ± 1e-05 | 0.000121 ± 7.5e-06 | –
8 | G32A U54G | 0.00257 ± 0.00027 | 2.6 ± 0.41 | 3.07e-05 ± 7.9e-06 | 0.000536 ± 5.3e-05 | 0.00121 ± 0.00012 | 0.00207 ± 0.00024 | 0.000162 ± 2.6e-05
9 | U31G G59A C70G | 3.81e-05 ± 8.1e-06 | – | – | – | 3.86e-05 ± 1.5e-05 | – | –
10 | U31C U45G | 0.000845 ± 0.00014 | 1.87 ± 0.57 | – | 0.000189 ± 2.7e-05 | 0.000505 ± 6.4e-05 | 0.000713 ± 9.2e-05 | 9.65e-05 ± 1.9e-05
11 | G32C A42U | < 1e-05 | – | – | – | < 1e-05 | – | < 1e-05
12 | G32C A42G | 0.000211 ± 3.7e-05 | – | – | – | 3.92e-05 ± 9.5e-06 | 0.000103 ± 1.3e-05 | –
13 | G32A U46G | 0.000631 ± 7.4e-05 | 3.22 ± 0.66 | – | 9.72e-05 ± 1.8e-05 | 0.000303 ± 5.6e-05 | 0.000468 ± 6.8e-05 | –
14 | G32A U46C | 0.000236 ± 2.1e-05 | 1.77 ± 0.29 | – | 6.49e-05 ± 8.9e-06 | 0.000126 ± 2.3e-05 | 0.000209 ± 3.3e-05 | –
15 | G32A U46A | 0.000607 ± 2.1e-05 | – | – | 2.22e-05 ± 1.1e-05 | 7.83e-05 ± 2.1e-05 | 0.000226 ± 2.7e-05 | –
16 | G32A G59U | 1.15e-05 ± 1.2e-06 | 3.35 ± 1.3 | – | – | – | – | –
17 | G32A G59A | 1.74e-05 ± 3.1e-06 | – | – | – | – | – | < 1e-05

Row | Variant | kcat (glucosamine-6-phosphate [1]) [s⁻¹] | KM (glucosamine-6-phosphate [2]) [mM] | self-cleavage kobs at 40 uM GlcN6P (glucosamine-6-phosphate [3]) [s⁻¹] | self-cleavage kobs at 640 uM GlcN6P (glucosamine-6-phosphate [4]) [s⁻¹] | self-cleavage kobs at 2500 uM GlcN6P (glucosamine-6-phosphate [5]) [s⁻¹] | self-cleavage kobs at 10000 uM GlcN6P (glucosamine-6-phosphate [6]) [s⁻¹] | self-cleavage kobs at 160 uM GlcN6P (glucosamine-6-phosphate [7]) [s⁻¹]
18 | A33C U55A | 0.000974 ± 0.00015 | 3.16 ± 0.94 | – | 0.000183 ± 3.5e-05 | 0.000519 ± 9.2e-05 | 0.000717 ± 7.8e-05 | 3.03e-05 ± 1.4e-05
19 | A33C U55G | 0.000433 ± 0.00012 | 2.97 ± 1.4 | – | 9.32e-05 ± 1.6e-05 | 0.000163 ± 2.8e-05 | 0.000384 ± 6.3e-05 | –
20 | G32U U55G | 0.000798 ± 0.0002 | 3.11 ± 1.4 | – | 0.000151 ± 2.5e-05 | 0.000274 ± 6.5e-05 | 0.000652 ± 9e-05 | –
21 | A33U A39U | 5.86e-05 ± 3e-06 | 4.82 ± 0.62 | – | – | 2.03e-05 ± 6.2e-06 | 3.95e-05 ± 5.5e-06 | < 1e-05
22 | A33U A39G | 0.00016 ± 3.8e-05 | – | – | – | 6.65e-05 ± 2.8e-05 | 0.000108 ± 1.3e-05 | < 1e-05
23 | G32C U69C | 3.02e-05 ± 3.3e-06 | – | – | 3.47e-05 ± 1.7e-05 | 3.15e-05 ± 1.3e-05 | 2.58e-05 ± 1.2e-05 | –
24 | A33U C58A | < 1e-05 | – | – | < 1e-05 | – | – | < 1e-05
25 | G32U U54A | 0.00121 ± 4.3e-05 | 6.51 ± 0.32 | – | 0.000107 ± 1.4e-05 | 0.000344 ± 4.3e-05 | 0.000726 ± 0.0001 | –
26 | A33U U54C | 0.000118 ± 8e-06 | 2.88 ± 0.72 | – | – | 5.23e-05 ± 2e-05 | 9.17e-05 ± 1.1e-05 | < 1e-05
27 | A33U G60C | < 1e-05 | – | < 1e-05 | < 1e-05 | – | < 1e-05 | –
28 | U31C U65G | 0.0016 ± 0.00034 | 5.25 ± 1.7 | – | 0.000198 ± 2.5e-05 | 0.000465 ± 7.2e-05 | 0.00108 ± 0.00013 | –
29 | G32A U55C | 0.00196 ± 0.00036 | 2.79 ± 0.76 | – | 0.000403 ± 4.8e-05 | 0.00122 ± 0.0002 | 0.00143 ± 0.00018 | 9.47e-05 ± 1.6e-05
30 | A33G G63C | < 1e-05 | – | < 1e-05 | < 1e-05 | – | – | –
31 | G32A A64U | < 1e-05 | – | < 1e-05 | < 1e-05 | – | – | < 1e-05
32 | A33U A53G C70U | 0.000178 ± 1.5e-05 | – | – | – | – | 5.75e-05 ± 9.2e-06 | –
33 | U31C G59A | 1.58e-05 ± 4.5e-06 | – | – | – | – | – | –
34 | U31G C67G | 0.000557 ± 2.6e-05 | 1.76 ± 0.15 | – | 0.00015 ± 1.7e-05 | 0.000303 ± 5.8e-05 | 0.00048 ± 4.6e-05 | 4.63e-05 ± 8.1e-06
